# Reference: patent publication US20160177336A1 (EIDGENOESSISCHE TECHNISCHE HOCHSCHULE ZURICH, published 2016)
# T1: Itc1p (yeast, UniProt P53125 1-1264)
# T1 construct: Co-expressed with Isw2p in insect cells from MultiBac baculovirus; also called 145 kDa Itc1p; subunit of the yeast Isw2 chromatin remodelling complex
# T1 sequence (looked up): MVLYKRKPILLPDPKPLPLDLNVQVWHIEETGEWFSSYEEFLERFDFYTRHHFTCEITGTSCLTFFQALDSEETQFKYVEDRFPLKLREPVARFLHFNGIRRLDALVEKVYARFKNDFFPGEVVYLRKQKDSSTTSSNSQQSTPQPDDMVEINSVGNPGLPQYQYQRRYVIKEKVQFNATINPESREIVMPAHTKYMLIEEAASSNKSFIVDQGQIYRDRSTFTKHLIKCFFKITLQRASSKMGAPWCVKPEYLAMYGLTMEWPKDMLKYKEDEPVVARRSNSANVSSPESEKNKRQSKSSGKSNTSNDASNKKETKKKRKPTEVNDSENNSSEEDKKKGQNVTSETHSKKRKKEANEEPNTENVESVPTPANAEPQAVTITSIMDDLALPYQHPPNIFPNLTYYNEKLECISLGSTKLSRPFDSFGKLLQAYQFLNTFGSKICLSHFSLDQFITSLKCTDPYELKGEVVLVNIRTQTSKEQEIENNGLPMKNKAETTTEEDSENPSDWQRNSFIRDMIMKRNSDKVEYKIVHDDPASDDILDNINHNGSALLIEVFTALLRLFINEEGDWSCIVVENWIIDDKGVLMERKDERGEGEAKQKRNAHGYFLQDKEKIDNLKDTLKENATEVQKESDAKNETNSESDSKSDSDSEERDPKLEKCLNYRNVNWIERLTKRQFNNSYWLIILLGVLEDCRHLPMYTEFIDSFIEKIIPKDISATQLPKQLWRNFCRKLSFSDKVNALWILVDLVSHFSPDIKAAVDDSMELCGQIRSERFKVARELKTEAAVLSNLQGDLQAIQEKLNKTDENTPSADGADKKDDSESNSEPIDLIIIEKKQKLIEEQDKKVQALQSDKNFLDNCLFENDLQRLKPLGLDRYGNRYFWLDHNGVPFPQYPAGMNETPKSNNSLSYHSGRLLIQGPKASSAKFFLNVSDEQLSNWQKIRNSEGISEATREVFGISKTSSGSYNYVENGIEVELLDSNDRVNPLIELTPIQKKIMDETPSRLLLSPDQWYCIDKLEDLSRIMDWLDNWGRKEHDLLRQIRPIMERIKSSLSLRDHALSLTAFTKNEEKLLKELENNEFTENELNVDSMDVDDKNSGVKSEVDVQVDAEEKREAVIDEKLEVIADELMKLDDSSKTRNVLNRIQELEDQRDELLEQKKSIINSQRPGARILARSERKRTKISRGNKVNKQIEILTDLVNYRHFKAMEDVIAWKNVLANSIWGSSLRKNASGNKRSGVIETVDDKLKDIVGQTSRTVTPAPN
# B1: Isw2p (other, yeast, UniProt Q08773 1-1120, looked up)
# chain: MTTQQEEQRSDTKNSKSESPSEVLVDTLDSKSNGSSDDDNIGQSEELSDKEIYTVEDRPPEYWAQRKKKFVLDVDPKYAKQKDKSDTYKRFKYLLGVTDLFRHFIGIKAKHDKNIQKLLKQLDSDANKLSKSHSTVSSSSRHHRKTEKEEDAELMADEEEEIVDTYQEDIFVSESPSFVKSGKLRDYQVQGLNWLISLHENKLSGILADEMGLGKTLQTISFLGYLRYVKQIEGPFLIIVPKSTLDNWRREFLKWTPNVNVLVLHGDKDTRADIVRNIILEARFDVLITSYEMVIREKNALKRLAWQYIVIDEAHRIKNEQSALSQIIRLFYSKNRLLITGTPLQNNLHELWALLNFLLPDIFGDSELFDEWFEQNNSEQDQEIVIQQLHSVLNPFLLRRVKADVEKSLLPKIETNVYVGMTDMQIQWYKSLLEKDIDAVNGAVGKREGKTRLLNIVMQLRKCCNHPYLFEGAEPGPPYTTDEHLIFNSGKMIILDKLLKRLKEKGSRVLIFSQMSRLLDILEDYCYFRDFEYCRIDGSTSHEERIEAIDEYNKPNSEKFVFLLTTRAGGLGINLVTADTVILFDSDWNPQADLQAMDRAHRIGQKKQVHVYRFVTENAIEEKVIERAAQKLRLDQLVIQQGTGKKTASLGNSKDDLLDMIQFGAKNMFEKKASKVTVDADIDDILKKGEQKTQELNAKYQSLGLDDLQKFNGIENQSAYEWNGKSFQKKSNDKVVEWINPSRRERRREQTTYSVDDYYKEIIGGGSKSASKQTPQPKAPRAPKVIHGQDFQFFPKELDALQEKEQLYFKKKVNYKVTSYDITGDIRNEGSDAEEEEGEYKNAANTEGHKGHEELKRRIEEEQEKINSAPDFTQEDELRKQELISKAFTNWNKRDFMAFINACAKYGRDDMENIKKSIDSKTPEEVEVYAKIFWERLKEINGWEKYLHNVELGEKKNEKLKFQETLLRQKIEQCKHPLHELIIQYPPNNARRTYNTLEDKFLLLAVNKYGLRADKLYEKLKQEIMMSDLFTFDWFIKTRTVHELSKRVHTLLTLIVREYEQPDANKKKRSRTSATREDTPLSQNESTRASTVPNLPTTMVTNQKDTNDHVDKRTKIDQEA
# notes: Co-expressed with Itc1p in insect cells from MultiBac baculovirus; also called 130 kDa Isw2p; subunit of the yeast Isw2 chromatin remodelling complex
# Biological target: T1, Itc1p
# Assay: co-expression in insect cells from MultiBac baculovirus; complex purified (FIG. 8)
# Excerpt: In a test experiment the yeast Isw2 chromatin remodelling complex consisting of the 130 kDa Isw2p and the 145 kDa Itc1p proteins was expressed. One version of MultiBac was created with both proteins integrated at the attTn7 site, and a second version with Isw2p integrated at the attTn7 site and Itc1p inserted at the LoxP site. […] For further detail see FIG. 8.
binder,measurement,value
B1,binding result,binds
